From patent publication US20250043302A1, “MUTATED HYDROXYPHENYLPYRUVATE DIOXYGENASE POLYPEPTIDE, AND CODING GENE AND USE THEREOF” (BEIJING DABEINONG BIOTECHNOLOGY CO., LTD., priority 2021, published 2025)

What was measured:
Format in all cases: in vivo
[1] = test system: Arabidopsis thaliana T1 plants; experiment: Mesotrione tolerance of transgenic Arabidopsis thaliana T1 plants (spray, bleached leaf area grade, damage score); set-up: Scores: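 damage score 0-100 computed as Σ(N×S)/(T×M)×100 over grades 0-3 with higher meaning more damage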; conditions: Arabidopsis thaliana T1 plants; for Grade 0 (classification and statistics of the grade of pesticide damage; number of plants) / Grade 1 (classification and statistics of the grade of pesticide damage; number of plants) / Grade 2 (classification and statistics of the grade of pesticide damage; number of plants) / Grade 3 (classification and statistics of the grade of pesticide damage; number of plants): 16 plants
Summary of the method: (§1)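 Damage graded 0–3 from the proportion of bleached leaf area 7 days after spraying. Plants were glufosinate-selected T1 lines, 18 days after sowing, plus vector and wild-type controls. Rates: mesotrione 52.5–420, isoxaflutole 35–280, topramezone 25–200 g ai/ha, with water (0×).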

[2] = test system: Arabidopsis thaliana T1 plants; experiment: Isoxaflutole tolerance of transgenic Arabidopsis thaliana T1 plants (spray, bleached leaf area grade, damage score); set-up: Scores (pesticide damage): scale not given here; conditions: spray, Arabidopsis thaliana T1 plants; for Classification and statistics of the grade of pesticide damage: Grade 0 (number of plants) / Classification and statistics of the grade of pesticide damage: Grade 1 (number of plants) / Classification and statistics of the grade of pesticide damage: Grade 2 (number of plants) / Classification and statistics of the grade of pesticide damage: Grade 3 (number of plants): 16 plants
Summary of the method: as §1

[3] = test system: Arabidopsis thaliana T1 plants; experiment: Topramezone tolerance of transgenic Arabidopsis thaliana T1 plants (spray, bleached leaf area grade, damage score); conditions: 7 DAT, Table 4; for Classification and statistics of the grade of pesticide damage: Grade 0 / Classification and statistics of the grade of pesticide damage: Grade 1 / Classification and statistics of the grade of pesticide damage: Grade 2 / Classification and statistics of the grade of pesticide damage: Grade 3: number of plants; for Scores: pesticide damage score 0-100
Summary of the method: as §1

[4] = isoxaflutole 35 g ai/ha (0.5x field concentration)
[5] = isoxaflutole 70 g ai/ha (1x field concentration)

B1: AtHPPDm-F383W-02: nucleotide sequence encoding Arabidopsis thaliana HPPD with F383W; vector DBN11732 (nucleic acid)
DNA: ATGGGACATCAGAATGCTGCTGTATCAGAAAATCAAAATCATGATGATGGAGCCGCCTCCTCACCAGGGTTTAAGTTGGTTGGGTTCTCCAAGTTTGTACGGAAGAACCCAAAATCCGACAAGTTCAAGGTTAAACGCTTCCACCACATTGAATTCTGGTGCGGCGACGCCACCAATGTTGCTCGGCGTTTTTCATGGGGTTTAGGCATGAGATTCTCAGCAAAGAGTGACCTGAGCACCGGCAACATGGTTCATGCTAGCTATCTCTTAACATCTGGAGATTTGAGGTTTCTTTTCACGGCGCCGTACTCACCATCACTCTCCGCCGGCGAGATCAAACCCACCACGACTGCAAGCATACCTTCATTTGATCATGGTAGTTGCAGATCCTTCTTCTCGTCGCACGGCCTAGGGGTGCGCGCGGTCGCCATCGAAGTTGAAGATGCAGAATCAGCGTTTAGTATCAGCGTGGCAAATGGAGCTATTCCTTCCTCCCCTCCAATTGTCCTCAATGAGGCTGTAACTATTGCCGAGGTGAAGTTGTATGGAGATGTTGTGCTGAGATATGTTTCTTACAAGGCAGAGGACACTGAGAAATCTGAATTTTTGCCTGGTTTTGAAAGGGTCGAGGATGCTTCAAGTTTTCCTCTTGATTACGGCATACGACGGTTGGATCACGCGGTTGGAAATGTACCAGAACTTGGGCCGGCGCTCACTTATGTGGCTGGTTTCACTGGATTCCATCAATTTGCTGAGTTCACAGCTGATGATGTTGGGACTGCTGAAAGTGGGTTGAACTCTGCAGTCCTCGCCTCTAATGATGAAATGGTGCTCCTCCCGATCAACGAGCCTGTGCATGGCACCAAAAGGAAATCACAAATACAGACATATCTTGAGCACAATGAAGGTGCAGGGCTTCAACATCTTGCACTGATGTCTGAAGACATTTTCCGTACGCTGAGAGAGATGAGGAAGAGAAGTAGTATTGGTGGATTTGACTTCATGCCTTCTCCCCCACCAACTTACTACCAGAACTTGAAGAAGAGGGTTGGTGATGTGCTATCTGATGACCAGATCAAGGAGTGTGAAGAATTGGGCATTCTTGTTGATCGGGACGACCAAGGAACATTACTGCAGATATTTACAAAACCACTTGGTGACCGCCCCACTATTTGGATTGAGATCATACAAAGAGTCGGCTGCATGATGAAGGATGAGGAAGGAAAAGCATATCAATCTGGTGGTTGTGGCGGCTTTGGGAAAGGAAACTTCTCTGAGCTGTTCAAATCCATCGAGGAGTATGAGAAGACCTTGGAGGCCAAGCAGCTCGTGGGTTGA
modifications: AtHPPDm-F383W-02 Nucleotide Sequence
notes: vector DBN11732
- Resistance evaluation ([1]; mesotrione 52.5 g ai/ha): Non-resistant
- Scores ([1]; mesotrione 52.5 g ai/ha): 100
- Grade 0 (classification and statistics of the grade of pesticide damage; number of plants) ([1]; mesotrione 52.5 g ai/ha): 0
- Grade 1 (classification and statistics of the grade of pesticide damage; number of plants) ([1]; mesotrione 52.5 g ai/ha): 0
- Grade 2 (classification and statistics of the grade of pesticide damage; number of plants) ([1]; mesotrione 52.5 g ai/ha): 0
- Grade 3 (classification and statistics of the grade of pesticide damage; number of plants) ([1]; mesotrione 52.5 g ai/ha): 16
- Resistance evaluation ([1]; mesotrione 105 g ai/ha): Non-resistant
- Scores ([1]; mesotrione 105 g ai/ha): 100
- Grade 0 (classification and statistics of the grade of pesticide damage; number of plants) ([1]; mesotrione 105 g ai/ha): 0
- Grade 1 (classification and statistics of the grade of pesticide damage; number of plants) ([1]; mesotrione 105 g ai/ha): 0
- Grade 2 (classification and statistics of the grade of pesticide damage; number of plants) ([1]; mesotrione 105 g ai/ha): 0
- Grade 3 (classification and statistics of the grade of pesticide damage; number of plants) ([1]; mesotrione 105 g ai/ha): 16
- Resistance evaluation [2, 4]: Non-resistant
- Scores (pesticide damage) [2, 4]: 77
- Classification and statistics of the grade of pesticide damage: Grade 0 (number of plants) [2, 4]: 0
- Classification and statistics of the grade of pesticide damage: Grade 1 (number of plants) [2, 4]: 2
- Classification and statistics of the grade of pesticide damage: Grade 2 (number of plants) [2, 4]: 7
- Classification and statistics of the grade of pesticide damage: Grade 3 (number of plants) [2, 4]: 7
- Resistance evaluation [2, 5]: Non-resistant
- Scores (pesticide damage) [2, 5]: 100
- Classification and statistics of the grade of pesticide damage: Grade 0 (number of plants) [2, 5]: 0
- Classification and statistics of the grade of pesticide damage: Grade 1 (number of plants) [2, 5]: 0
- Classification and statistics of the grade of pesticide damage: Grade 2 (number of plants) [2, 5]: 0
- Classification and statistics of the grade of pesticide damage: Grade 3 (number of plants) [2, 5]: 16
- Classification and statistics of the grade of pesticide damage: Grade 0 ([3]; topramezone 25 g ai/ha (1×)): 0
- Classification and statistics of the grade of pesticide damage: Grade 1 ([3]; topramezone 25 g ai/ha (1×)): 2
- Classification and statistics of the grade of pesticide damage: Grade 2 ([3]; topramezone 25 g ai/ha (1×)): 5
- Classification and statistics of the grade of pesticide damage: Grade 3 ([3]; topramezone 25 g ai/ha (1×)): 9
- Classification and statistics of the grade of pesticide damage: Grade 0 ([3]; topramezone 100 g ai/ha (4×)): 0
- Classification and statistics of the grade of pesticide damage: Grade 1 ([3]; topramezone 100 g ai/ha (4×)): 0
- Classification and statistics of the grade of pesticide damage: Grade 2 ([3]; topramezone 100 g ai/ha (4×)): 2
- Classification and statistics of the grade of pesticide damage: Grade 3 ([3]; topramezone 100 g ai/ha (4×)): 14
- Scores ([3]; topramezone 25 g ai/ha (1×)): 81
- Scores ([3]; topramezone 100 g ai/ha (4×)): 96
- Resistance evaluation ([3]; topramezone 25 g ai/ha (1×)): non-resistant (non-resistant plants (scores 68-100))
- Resistance evaluation ([3]; topramezone 100 g ai/ha (4×)): non-resistant (non-resistant plants (scores 68-100))
